US20130195871A1 (AbbVie / Abbott, published 2013)
Each block holds one binder with its values, some of them ahead of it.

Columns and labels:
[1] = target: T1, Recombinant Human ErbB3/FC Chimera-His tag (human, UniProt P21860 20-643); experiment: SPR (Biacore), C-terminal VD;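 further: surface plasmon resonance with DVD-Ig proteins captured on an anti-IgG chip and recombinant antigen flowed over in HBS-EP buffer, Langmuir global fit, KD taken as koff/kon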
T1 construct: bought reagent

[2] = target: T2, Recombinant Human IGF1R (human, UniProt P08069 31-932); experiment: SPR (Biacore)
T2 construct: bought reagent
Protocol: (§1) The BIACORE assay (Biacore, Inc, Piscataway, N.J.) determined the affinity of antibodies or DVD-Ig proteins with kinetic measurements of on-rate and off-rate constants. Binding of antibodies or DVD-Ig proteins to a target antigen (for example, a purified recombinant target antigen) was determined by surface plasmon resonance-based measurements with a Biacore® 1000 or 3000 instrument (Biacore AB, Uppsala. Sweden) using running HBS-EP (10 mM HEPES [pH 7.4], 150 mM NaCl, 3 mM EDTA, and 0.005% surfactant P20) at 25° C. […] For example, approximately 5000 RU of goat anti-mouse IgG, (Fcγ), fragment specific polyclonal antibody (Pierce Biotechnology Inc, Rockford, Ill.) diluted in 10 mM sodium acetate (pH 4.5) was directly immobilized across a CM5 research grade biosensor chip using a standard amine coupling kit according to manufacturer's instructions and procedures at 25 μg/ml. Unreacted moieties on the biosensor surface were blocked with ethanolamine. Modified carboxymethyl dextran surface in flowcell 2 and 4 was used as a reaction surface. Unmodified carboxymethyl dextran without goat anti-mouse IgG in flow cell 1 and 3 was used as the reference surface. For kinetic analysis, rate equations derived from the 1:1 Langmuir binding model were fitted simultaneously to association and dissociation phases of all eight injections (using global fit analysis) with the use of Biaevaluation 4.0.1 software. Purified antibodies or DVD-Ig proteins were diluted in HEPES-buffered saline for capture across goat anti-mouse IgG specific reaction surfaces. Antibodies or DVD-Ig proteins to be captured as a ligand (25 μg/ml) were injected over reaction matrices at a flow rate of 5 μl/minute. The association and dissociation rate constants, kₒₙ (M⁻¹s⁻¹) and koff (s⁻¹) were determined under a continuous flow rate of 25 μl/minute. Rate constants were derived by making kinetic binding measurements at different antigen concentrations ranging from 10-200 nM. The equilibrium dissociation constant (M) of the reaction between antibodies or DVD-Ig proteins and the target antigen was then calculated from the kinetic rate constants by the following formula: KD=koff/kₒₙ. Binding was recorded as a function of time and kinetic rate constants were calculated.

[3] = target: T3, Recombinant Human MSP Receptor ECD-His tag (human, UniProt Q04912 25-957); experiment: SPR (Biacore), N-terminal VD;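 further: capture of antibodies or DVD-Ig proteins on an anti-mouse IgG chip surface, recombinant antigen injected at 10–200 nM in HBS-EP running buffer at 25 °C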
T3 construct: extracellular domain; bought reagent; also called RON
Protocol: as §1

[4] = target: T4, Recombinant Human EGFR ECD (human, UniProt P00533 25-645); experiment: SPR (Biacore), C-terminal VD;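 further: surface plasmon resonance with DVD-Ig proteins captured on an anti-IgG chip and recombinant antigen flowed over in HBS-EP buffer, Langmuir global fit, KD taken as koff/kon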
T4 construct: extracellular domain; bought reagent

[5] = target: T1, Recombinant Human ErbB3/FC Chimera-His …; experiment: SPR (Biacore)
Protocol: as §1

[6] = target: T4, Recombinant Human EGFR ECD; experiment: SPR (Biacore), N-terminal VD;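 further: capture of antibodies or DVD-Ig proteins on an anti-mouse IgG chip surface, recombinant antigen injected at 10–200 nM in HBS-EP running buffer at 25 °C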
Protocol: as §1

[7] = target: T2, Recombinant Human IGF1R; experiment: SPR (Biacore), N-terminal VD;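 further: capture of antibodies or DVD-Ig proteins on an anti-mouse IgG chip surface, recombinant antigen injected at 10–200 nM in HBS-EP running buffer at 25 °C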
Protocol: as §1

- binding result [1]: no binding (tested: 10-200 nM)
B1: DVD2274 (bispecific antibody)
VH: EVQLVESGGGLVQPGGSLRLSCAASGFTFTDYTMDWVRQAPGKGLEWVADVNPNSGGSIYNQRFKGRFTLSVDRSKNTLYLQMNSLRAEDTAVYYCARNLGPSFYFDYWGQGTLVTVSSASTKGPQVQLQQWGAGLLKPSETLSLTCAVYGGSFSGYYWSWIRQPPGKGLEWIGEINHSGSTNYNPSLKSRVTISVETSKNQFSLKLSSVTAADTAVYYCARDKWTWYFDLWGRGTLVTVSS
VL: DIQMTQSPSSLSASVGDRVTITCKASQDVSIGVAWYQQKPGKAPKLLIYSASYRYTGVPSRFSGSGSGTDFTLTISSLQPEDFATYYCQQYYIYPYTFGQGTKVEIKRTVAAPDIEMTQSPDSLAVSLGERATINCRSSQSVLYSSSNRNYLAWYQQNPGQPPKLLIYWASTRESGVPDRFSGSGSGTDFTLTISSLQAEDVAVYYCQQYYSTPRTFGQGTKVEIK
notes: DVD-Ig, outer AB080 / inner AB062

- Kd [2]: 5.3 nM
- koff [2]: 0.00013 s⁻¹
- kon [2]: 25000 M⁻¹ s⁻¹
B2: DVD2218 (bispecific antibody)
VH: EVQLVQSGAEVKKPGSSVKVSCKASGGTFSSYAISWVRQAPGQGLEWMGGIIPIFGTANYAQKFQGRVTITADKSTSTAYMELSSLRSEDTAVYYCARAPLRFLEWSTQDHYYYYYMDVWGKGTTVTVSSASTKGPSVFPLAPEVQLLESGGGLVQPGGSLRLSCTASGFTFSSYAMNWVRQAPGKGLEWVSAISGSGGTTFYADSVKGRFTISRDNSRTTLYLQMNSLRAEDTAVYYCAKDLGWSDSYYYYYGMDVWGQGTTVTVSS
VL: SSELTQDPAVSVALGQTVRITCQGDSLRSYYATWYQQKPGQAPILVIYGENKRPSGIPDRFSGSSSGNTASLTITGAQAEDEADYYCKSRDGSGQHLVFGGGTKLTVLGQPKAAPDIQMTQFPSSLSASVGDRVTITCRASQGIRNDLGWYQQKPGKAPKRLIYAASRLHRGVPSRFSGSGSGTEFTLTISSLQPEDFATYYCLQHNSYPCSFGQGTKLEIK
notes: DVD-Ig, outer AB075 / inner AB011

- binding result [1]: no binding (tested: 10-200 nM)
- Kd [3]: 17 nM
- koff [3]: 0.00092 s⁻¹
- kon [3]: 55000 M⁻¹ s⁻¹
B3: DVD2318 (bispecific antibody)
VH: EVQLVQSGGGLVKPGGSLRLSCAASGFTFSSYAMHWVRQAPGKGLEWVAVISYDGSNKYYADSVKGRFTISRDNSKNTLYLQMNSLRAEDTAVYYCARFSGWPNNYYYYGMDVWGQGTTVTVSSASTKGPEVQLVESGGGLVQPGGSLRLSCAASGFTFSIYSMNWVRQAPGKGLEWVSYISSSSSTIYYADSVKGRFTISRDNAKNSLYLQMNSLRDEDTAVYYCARDRGDFDAFDIWGQGTMVTVSS
VL: DVVMTQSPLSLPVTPGEPASISCRSSQSLLHSNGFNYVDWYLQKPGQSPHLLIYFGSYRASGVPDRFSGSGSGTDFTLKISRVEAEDVGVYYCMQALQTPPWTFGQGTKVEIRRTVAAPDIQMTQSPSSLSASVGDRVTITCQASQDITNYLNWYQQKPGKAPKLLIYDASNLETGVPSRFSGSGSGTDFTFTISSLQPEDIATYNCQQCENFPITFGQGTRLEIK
notes: DVD-Ig, outer AB005 / inner AB063

- Kd [4]: 18 nM
- koff [4]: 0.00035 s⁻¹
- kon [4]: 19000 M⁻¹ s⁻¹
B4: DVD2268 (bispecific antibody)
VH: EVQLVESGGGLVQPGGSLRLSCAASGFTFTDYTMDWVRQAPGKGLEWVADVNPNSGGSIYNQRFKGRFTLSVDRSKNTLYLQMNSLRAEDTAVYYCARNLGPSFYFDYWGQGTLVTVSSASTKGPQVQLQESGPGLVKPSETLSLTCTVSGGSVSSGDYYWTWIRQSPGKGLEWIGHIYYSGNTNYNPSLKSRLTISIDTSKTQFSLKLSSVTAADTAIYYCVRDRVTGAFDIWGQGTMVTVSS
VL: DIQMTQSPSSLSASVGDRVTITCKASQDVSIGVAWYQQKPGKAPKLLIYSASYRYTGVPSRFSGSGSGTDFTLTISSLQPEDFATYYCQQYYIYPYTFGQGTKVEIKRTVAAPDIQMTQSPSSLSASVGDRVTITCQASQDISNYLNWYQQKPGKAPKLLIYDASNLETGVPSRFSGSGSGTDFTFTISSLQPEDIATYFCQHFDHLPLAFGGGTKVEIK

- Kd [5]: 5.9 nM
- koff [5]: 0.0003 s⁻¹
- kon [5]: 51000 M⁻¹ s⁻¹
B5: DVD2238 (bispecific antibody)
VH: QVQLQQWGAGLLKPSETLSLTCAVYGGSFSGYYWSWIRQPPGKGLEWIGEINHSGSTNYNPSLKSRVTISVETSKNQFSLKLSSVTAADTAVYYCARDKWTWYFDLWGRGTLVTVSSASTKGPEVQLVESGGGLVQPGGSLRLSCAASGFTFSIYSMNWVRQAPGKGLEWVSYISSSSSTIYYADSVKGRFTISRDNAKNSLYLQMNSLRDEDTAVYYCARDRGDFDAFDIWGQGTMVTVSS
VL: DIEMTQSPDSLAVSLGERATINCRSSQSVLYSSSNRNYLAWYQQNPGQPPKLLIYWASTRESGVPDRFSGSGSGTDFTLTISSLQAEDVAVYYCQQYYSTPRTFGQGTKVEIKRTVAAPDIQMTQSPSSLSASVGDRVTITCQASQDITNYLNWYQQKPGKAPKLLIYDASNLETGVPSRFSGSGSGTDFTFTISSLQPEDIATYNCQQCENFPITFGQGTRLEIK
notes: DVD-Ig, outer AB062 / inner AB063

- Kd [5]: 7.6 nM
- koff [5]: 0.00051 s⁻¹
- kon [5]: 67000 M⁻¹ s⁻¹
B6: DVD2242 (bispecific antibody)
VH: QVQLQQWGAGLLKPSETLSLTCAVYGGSFSGYYWSWIRQPPGKGLEWIGEINHSGSTNYNPSLKSRVTISVETSKNQFSLKLSSVTAADTAVYYCARDKWTWYFDLWGRGTLVTVSSASTKGPSVFPLAPEVQLVESGGGLVQPGGSLRLSCAASGFTFSIYSMNWVRQAPGKGLEWVSYISSSSSTIYYADSVKGRFTISRDNAKNSLYLQMNSLRDEDTAVYYCARDRGDFDAFDIWGQGTMVTVSS
VL: DIEMTQSPDSLAVSLGERATINCRSSQSVLYSSSNRNYLAWYQQNPGQPPKLLIYWASTRESGVPDRFSGSGSGTDFTLTISSLQAEDVAVYYCQQYYSTPRTFGQGTKVEIKRTVAAPDIQMTQSPSSLSASVGDRVTITCQASQDITNYLNWYQQKPGKAPKLLIYDASNLETGVPSRFSGSGSGTDFTFTISSLQPEDIATYNCQQCENFPITFGQGTRLEIK
notes: as for B5

- Kd [6]: 0.76 nM
- koff [6]: 0.00045 s⁻¹
- kon [6]: 580000 M⁻¹ s⁻¹
B7: DVD2349 (bispecific antibody)
VH: EVQLVESGGGLVQPGGSLRLSCAASGFSLTNYGVHWVRQAPGKGLEWLGVGWSGGNTDYNTPFTSRLTINKDNSKNTVYLQMNSLRAEDTAVYYCARALTWYDYEFAYWGQGTLVTVSSASTKGPQVQLQESGPGLVKPSQTLSLTCTVSGYSISSDFAWNWIRQPPGKGLEWMGYISYSGNTRYQPSLKSRITISRDTSKNQFFLKLNSVTAADTATYYCVTAGRGFPYWGQGTLVTVSS
VL: DILLTQSPGTLSLSPGERATLSCRASQSIYTNIHWYQQKPGQAPRLLIKYASESISGIPDRFSGSGSGTDFTLTISRLEPEDFAVYYCQQNLNWPTTFGQGTKLEIKRTVAAPDIQMTQSPSSMSVSVGDRVTITCHSSQDINSNIGWLQQKPGKSFKGLIYHGTNLDDGVPSRFSGSGSGTDYTLTISSLQPEDFATYYCVQYAQFPWTFGGGTKLEIK

- Kd [6]: 8.5 nM
- koff [6]: 0.00024 s⁻¹
- kon [6]: 28000 M⁻¹ s⁻¹
B8: DVD2348 (bispecific antibody)
VH: QVQLQESGPGLVKPSQTLSLTCTVSGYSISSDFAWNWIRQPPGKGLEWMGYISYSGNTRYQPSLKSRITISRDTSKNQFFLKLNSVTAADTATYYCVTAGRGFPYWGQGTLVTVSSASTKGPEVQLVESGGGLVQPGGSLRLSCAASGFSLTNYGVHWVRQAPGKGLEWLGVGWSGGNTDYNTPFTSRLTINKDNSKNTVYLQMNSLRAEDTAVYYCARALTWYDYEFAYWGQGTLVTVSS
VL: DIQMTQSPSSMSVSVGDRVTITCHSSQDINSNIGWLQQKPGKSFKGLIYHGTNLDDGVPSRFSGSGSGTDYTLTISSLQPEDFATYYCVQYAQFPWTFGGGTKLEIKRTVAAPDILLTQSPGTLSLSPGERATLSCRASQSIYTNIHWYQQKPGQAPRLLIKYASESISGIPDRFSGSGSGTDFTLTISRLEPEDFAVYYCQQNLNWPTTFGQGTKLEIK

- Kd [5]: 5.6 nM
- koff [5]: 0.00022 s⁻¹
- kon [5]: 39000 M⁻¹ s⁻¹
B9: DVD2249 (bispecific antibody)
VH: EVQLLESGGGLVQPGGSLRLSCAASGFTFSHYVMAWVRQAPGKGLEWVSSISSSGGWTLYADSVKGRFTISRDNSKNTLYLQMNSLRAEDTAVYYCTRGLKMATIFDYWGQGTLVTVSSASTKGPSVFPLAPQVQLQQWGAGLLKPSETLSLTCAVYGGSFSGYYWSWIRQPPGKGLEWIGEINHSGSTNYNPSLKSRVTISVETSKNQFSLKLSSVTAADTAVYYCARDKWTWYFDLWGRGTLVTVSS
VL: QSALTQPASVSGSPGQSITISCTGTSSDVGSYNVVSWYQQHPGKAPKLIIYEVSQRPSGVSNRFSGSKSGNTASLTISGLQTEDEADYYCCSYAGSSIFVIFGGGTKVTVLGTVAAPDIEMTQSPDSLAVSLGERATINCRSSQSVLYSSSNRNYLAWYQQNPGQPPKLLIYWASTRESGVPDRFSGSGSGTDFTLTISSLQAEDVAVYYCQQYYSTPRTFGQGTKVEIK
notes: DVD-Ig, outer AB116 / inner AB062

- Kd [4]: 6.1 nM
- koff [4]: 0.00016 s⁻¹
- kon [4]: 26000 M⁻¹ s⁻¹
- Kd [7]: 7.4 nM
- koff [7]: 0.00019 s⁻¹
- kon [7]: 26000 M⁻¹ s⁻¹
B10: DVD2284 (bispecific antibody)
VH: EVQLVQSGAEVKKPGSSVKVSCKASGGTFSSYAISWVRQAPGQGLEWMGGIIPIFGTANYAQKFQGRVTITADKSTSTAYMELSSLRSEDTAVYYCARAPLRFLEWSTQDHYYYYYMDVWGKGTTVTVSSASTKGPQVQLQESGPGLVKPSQTLSLTCTVSGYSISSDFAWNWIRQPPGKGLEWMGYISYSGNTRYQPSLKSRITISRDTSKNQFFLKLNSVTAADTATYYCVTAGRGFPYWGQGTLVTVSS
VL: SSELTQDPAVSVALGQTVRITCQGDSLRSYYATWYQQKPGQAPILVIYGENKRPSGIPDRFSGSSSGNTASLTITGAQAEDEADYYCKSRDGSGQHLVFGGGTKLTVLGQPKAAPDIQMTQSPSSMSVSVGDRVTITCHSSQDINSNIGWLQQKPGKSFKGLIYHGTNLDDGVPSRFSGSGSGTDYTLTISSLQPEDFATYYCVQYAQFPWTFGGGTKLEIK
